Reference: paper PMC11838285 (bioRxiv, 2025)

Molecular target: RPB1 subunit of human RNA Polymerase II (human, UniProt P24928 1-1970)
Assay: cryo-EM structure

binding result: binds
B1: RECQL5_(1–620) D157A (domain or fragment)
chain: MSSHHTTFPFDPERRVRSTLKKVFGFDSFKTPLQESATMAVVKGNKDVFVCMPTGAGKSLCYQLPALLAKGITIVVSPLIALIQDQVDHLLTLKVRVSSLNSKLSAQERKELLADLEREKPQTKILYITPEMAASSSFQPTLNSLVSRHLLSYLVVAEAHCVSQWGHDFRPDYLRLGALRSRLGHAPCVALTATATPQVQEDVFAALHLKKPVAIFKTPCFRANLFYDVQFKELISDPYGNLKDFCLKALGQEADKGLSGCGIVYCRTREACEQLAIELSCRGVNAKAYHAGLKASERTLVQNDWMEEKVPVIVATISFGMGVDKANVRFVAHWNIAKSMAGYYQESGRAGRDGKPSWCRLYYSRNDRDQVSFLIRKEVAKLQEKRGNKASDKATIMAFDALVTFCEELGCRHAAIAKYFGDALPACAKGCDHCQNPTAVRRRLEALERSSSWSKTCIGPSQGNGFDPELYEGGRKGYGDFSRYDEGSGGSGDEGRDEAHKREWNLFYQKQMQLRKGKDPKIEEFVPPDENCPLKEASSRRIPRLTVKAREHCLRLLEEALSSNRQSTRTADEADLRAKAVELEHETFRNAKVANLYKASVLKKVADIHRASKDGQPYDM
